Assay results published in publication PMC8154254, “On the Track of Long-Range Electron Transfer in B-Type Dye-Decolorizing Peroxidases: Identification of a Tyrosyl Radical by Computational Prediction and Electron Paramagnetic Resonance Spectroscopy” (Biochemistry, 2021).

Substrate: CCn1c(=NN=c2sc3cc(S(=O)(=O)O)ccc3n2CC)sc2cc(S(=O)(=O)O)ccc21
Test: purified protein
Type: biochemical, Klebsiella pneumoniae
Conditions: 40 μM H2O2, 100 nM enzyme, 50 mM phosphate-citrate pH 5.0, room temperature

B1: KpDyP (B-type Klebsiella pneumoniae dye-decolorizing peroxidase) (Klebsiella pneumoniae) (protein)
chain: MSQVQSGILPEHCRAAIWIEANLKGDVNALREASKIFVDNVATFQAKFPDAKLGAVVAFGNNVWRQLSGGEGADELKDFPVYGKGLAPSTQYDLLIHILSARHEVNFSVAQAALAAFGDAIDVKEEIHGFRWVEERDLSGFVDGTENPAGEETRREVAVIKDGVDAGGSYVFVQRWEHNLKQLNRMSVPDQEMMIGRTKDANEEIDGDERPVTSHLSRVDLKEDGKGLKIVRQSLPYGTASGTHGLYFCAYCARLYNIEQQLLSMFGDTDGKRDAMLRFTKPVTGGYYFAPSLERIQAL
notes: recombinant from E. coli BL21 (DE3) Tuner; dimer
Which results are given for B1?
Km: 20.5 ± 1.9 µM; kcat: 3.1 ± 0.1 s⁻¹; kcat/Km: 150000 M⁻¹ s⁻¹
